# The supplement of paper PMC7877785
# ± gives the uncertainty stated by the source.
# Assay: self-splicing fitness, log relative to wild type (ln ratio); higher = more splicing; Tetrahymena group I intron in knt gene, E. coli kanamycin selection, DiMSum; sequences stand for … in CUCUCU…GGAGGGAAAAGUUAUCAGGCAUGCACCUGGUAGCUAGUCUUUAAACCAAUAGAUUGCAUCGGUUUAAAAGGCAAGACCGUCAAAUUGCGGGAAAGGGGUCAACAGCCGUUCAGUACCAAGUCUCAGGGGAAACUUUGAGAUGGCCUUGCAAAGGGUAUGGUAAUAAGCUGACGGACAUGGUCCUAACCACGCAGCCAAGUCCUAAGUCAACAGAUCUUCUGUUGAUAUGGAUGCAGUUCACAGACUAAAUGUCGGUCGGGGAAGAUGUAUUCUUCUCAUAAGAUAUAGUCGGACCUCUCCUUAAUGGGAGCUAGCGGAUGAAGUGAUGCAACACUGGAGCCGCUGGGAACUAAUUUGUAUGCGAAAGUAUAUUGAUUAGUUUUGGAGUACUCGUGGUCG
# Method in brief: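 Fitness was computed with DiMSum as the error-weighted combination of replicate fold changes, kanamycin versus none, each normalised to wild type. The library randomised all eight intron nucleotides of the P1ex region, with the intron placed in the knt kanamycin-resistance gene on pET-22b(+) in E. coli BL21(DE3). Six replicate transformations were grown overnight at 37°C or 30°C on LB agar with or without 25 μg/mL kanamycin, plus 100 μg/mL carbenicillin, 50 μM IPTG and 0.2% rhamnose. Pooled colonies were amplicon-sequenced on an Illumina HiSeq 2500.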
Sequence,self-splicing fitness (ln) (30 °C),self-splicing fitness (ln) (37 °C)
AUCCAGCAAUAUUACGUUCA,-1.02 ± 0.068,-0.265 ± 0.072
AUCCAGCAAUAUUACGUUUA,-1.81 ± 0.076,-1.01 ± 0.081
AUCGAGCAAUAUUACGAAAA,-3.6 ± 0.39,-2.1 ± 0.32
AUCGAGCAAUAUUACGAACA,-2.91 ± 0.24,-1.27 ± 0.2
AUCGAGCAAUAUUACGAAGU,-2.62 ± 0.18,-1.49 ± 0.18
AUCGAGCAAUAUUACGACCU,-0.95 ± 0.092,-0.344 ± 0.15
AUCGAGCAAUAUUACGAUCC,-2.13 ± 0.46,
AUCGAGCAAUAUUACGCAAA,-2.86 ± 0.16,-2.38 ± 0.26
AUCGAGCAAUAUUACGCAUA,,-1.54 ± 0.36
AUCGAGCAAUAUUACGCGGU,-2.9 ± 0.27,-1.4 ± 0.22
AUCGAGCAAUAUUACGCUGG,-2.78 ± 0.21,-2.96 ± 0.2
AUCGAGCAAUAUUACGCUGU,-2.24 ± 0.18,-3.35 ± 0.37
AUCGAGCAAUAUUACGGAAC,-2.61 ± 0.31,-2.07 ± 0.4
AUCGAGCAAUAUUACGGAAU,-3.47 ± 0.21,-1.79 ± 0.18
AUCGAGCAAUAUUACGGACA,-1.98 ± 0.38,-1.41 ± 0.42
AUCGAGCAAUAUUACGGCCA,-1.35 ± 0.41,-1.47 ± 0.37
AUCGAGCAAUAUUACGGCCC,-3.15 ± 0.35,1.32 ± 0.32
AUCGAGCAAUAUUACGGCUU,-3.88 ± 0.3,-2.58 ± 0.29
AUCGAGCAAUAUUACGGGAC,-2.89 ± 0.27,-1.11 ± 0.19
AUCGAGCAAUAUUACGGGAG,-3.52 ± 0.25,-2.5 ± 0.29
AUCGAGCAAUAUUACGGGGA,-2.83 ± 0.22,-1.18 ± 0.15
AUCGAGCAAUAUUACGGUCG,-2.73 ± 0.38,
AUCGAGCAAUAUUACGUCAU,-2.35 ± 0.14,-1.65 ± 0.15
AUCGAGCAAUAUUACGUGGU,-3.23 ± 0.15,-2.72 ± 0.14
AUCGAGCAAUAUUACGUGUC,-3.76 ± 0.22,-0.765 ± 0.13

Sequence,self-splicing fitness (ln) (30 °C),self-splicing fitness (ln) (37 °C)
AUCGAGCAAUAUUACGUUAU,-3.5 ± 0.26,-2.59 ± 0.28
AUCGAGCAAUAUUACGUUCC,-1.89 ± 0.24,-2.02 ± 0.26
AUCGAGCAAUAUUACGUUUG,-4.29 ± 0.3,-2.05 ± 0.21
AUCUAGCAAUAUUACGAAGA,-1.45 ± 0.14,-1.67 ± 0.15
AUCUAGCAAUAUUACGACCA,-0.438 ± 0.12,-0.302 ± 0.14
AUCUAGCAAUAUUACGACUC,-0.0532 ± 0.28,
AUCUAGCAAUAUUACGAGUC,-4.11 ± 0.36,-2.19 ± 0.25
AUCUAGCAAUAUUACGAGUU,-2.66 ± 0.16,-0.737 ± 0.14
AUCUAGCAAUAUUACGAUCA,-1.92 ± 0.14,-0.116 ± 0.18
AUCUAGCAAUAUUACGAUGC,-1.74 ± 0.13,-1.33 ± 0.16
AUCUAGCAAUAUUACGCAUG,-1.88 ± 0.13,-0.806 ± 0.12
AUCUAGCAAUAUUACGCCAG,-2.77 ± 0.26,-2.17 ± 0.25
AUCUAGCAAUAUUACGCGAA,-2 ± 0.24,-0.373 ± 0.14
AUCUAGCAAUAUUACGCGCC,-0.659 ± 0.17,-0.398 ± 0.16
AUCUAGCAAUAUUACGCUUA,-1.44 ± 0.1,-0.971 ± 0.096
AUCUAGCAAUAUUACGGAAG,-1.99 ± 0.12,-0.947 ± 0.15
AUCUAGCAAUAUUACGGCAC,-1.5 ± 0.13,-0.819 ± 0.17
AUCUAGCAAUAUUACGGUGA,-1.75 ± 0.11,-0.608 ± 0.13
AUCUAGCAAUAUUACGGUUG,-2.66 ± 0.15,-2.45 ± 0.19
AUCUAGCAAUAUUACGUGAA,-2.52 ± 0.12,-0.861 ± 0.12
AUCUAGCAAUAUUACGUGCA,-0.394 ± 0.15,-0.423 ± 0.18
AUCUAGCAAUAUUACGUGGA,-2.71 ± 0.24,-2.91 ± 0.26
AUCUAGCAAUAUUACGUGUU,-2.71 ± 0.17,-2.54 ± 0.17
AUCUAGCAAUAUUACGUUAG,-3.26 ± 0.19,-2.67 ± 0.24
AUCUAGCAAUAUUACGUUUC,-2.64 ± 0.35,-2.9 ± 0.47

Sequence,self-splicing fitness (ln) (30 °C),self-splicing fitness (ln) (37 °C)
AUGAAGCAAUAUUACGAAAC,-2.04 ± 0.2,-0.541 ± 0.3
AUGAAGCAAUAUUACGACGG,-0.0267 ± 0.085,0.216 ± 0.14
AUGAAGCAAUAUUACGAGCG,0.0672 ± 0.066,0.405 ± 0.085
AUGAAGCAAUAUUACGAUCG,0.0492 ± 0.071,0.821 ± 0.11
AUGAAGCAAUAUUACGCACU,0.079 ± 0.14,0.992 ± 0.22
AUGAAGCAAUAUUACGCCAU,-1.17 ± 0.082,-0.85 ± 0.12
AUGAAGCAAUAUUACGCUAG,-0.164 ± 0.07,0.337 ± 0.086
AUGAAGCAAUAUUACGCUCG,-0.0634 ± 0.1,0.31 ± 0.16
AUGAAGCAAUAUUACGGCGA,0.267 ± 0.082,0.989 ± 0.11
AUGAAGCAAUAUUACGGCGG,-0.365 ± 0.083,0.476 ± 0.11
AUGAAGCAAUAUUACGGCUG,0.352 ± 0.066,0.0954 ± 0.087
AUGAAGCAAUAUUACGGUCA,0.145 ± 0.07,0.605 ± 0.1
AUGAAGCAAUAUUACGGUCC,-0.305 ± 0.12,0.363 ± 0.14
AUGAAGCAAUAUUACGGUGG,-1.87 ± 0.069,-1.92 ± 0.12
AUGAAGCAAUAUUACGGUUG,-0.993 ± 0.11,-1.49 ± 0.12
AUGAAGCAAUAUUACGUAAC,-2.45 ± 0.18,0.328 ± 0.16
AUGAAGCAAUAUUACGUAAG,-1.05 ± 0.057,-0.409 ± 0.083
AUGAAGCAAUAUUACGUCUA,0.344 ± 0.094,0.623 ± 0.11
AUGAAGCAAUAUUACGUGAC,-2.85 ± 0.13,-1.63 ± 0.15
AUGAAGCAAUAUUACGUUCA,0.00482 ± 0.072,0.318 ± 0.1
AUGAAGCAAUAUUACGUUCC,-0.618 ± 0.086,-0.0585 ± 0.11
AUGAAGCAAUAUUACGUUGA,-2.39 ± 0.1,-0.85 ± 0.12
AUGCAGCAAUAUUACGAAAC,-2.82 ± 0.46,-0.989 ± 0.27
AUGCAGCAAUAUUACGAGAG,-4.15 ± 0.27,-1.16 ± 0.12
AUGCAGCAAUAUUACGAGAU,-3 ± 0.15,-1.54 ± 0.12

Sequence,self-splicing fitness (ln) (30 °C),self-splicing fitness (ln) (37 °C)
AUGCAGCAAUAUUACGAUCA,-0.908 ± 0.14,-0.711 ± 0.14
AUGCAGCAAUAUUACGAUUU,-0.306 ± 0.058,-0.153 ± 0.074
AUGCAGCAAUAUUACGCAGU,-3.23 ± 0.16,-1.69 ± 0.12
AUGCAGCAAUAUUACGCCCG,-1.22 ± 0.2,-0.571 ± 0.29
AUGCAGCAAUAUUACGCCGC,-0.963 ± 0.28,
AUGCAGCAAUAUUACGCGUG,-3.92 ± 0.17,-2.59 ± 0.18
AUGCAGCAAUAUUACGCUCC,-2.02 ± 0.29,0.0573 ± 0.36
AUGCAGCAAUAUUACGCUGA,-2.82 ± 0.19,-1.35 ± 0.13
AUGCAGCAAUAUUACGCUUC,-4.78 ± 0.34,-3.07 ± 0.34
AUGCAGCAAUAUUACGGAUC,-2.52 ± 0.15,-2.7 ± 0.14
AUGCAGCAAUAUUACGGAUG,-4.6 ± 0.29,-1.08 ± 0.13
AUGCAGCAAUAUUACGGCAC,-1.72 ± 0.25,-1.29 ± 0.26
AUGCAGCAAUAUUACGGCCU,0.794 ± 0.13,0.0607 ± 0.16
AUGCAGCAAUAUUACGGUCG,-1.41 ± 0.11,-0.972 ± 0.14
AUGCAGCAAUAUUACGGUGC,-3.79 ± 0.11,-3.02 ± 0.13
AUGCAGCAAUAUUACGUACG,-2.15 ± 0.1,-0.573 ± 0.12
AUGCAGCAAUAUUACGUAGA,-1.71 ± 0.079,-1.09 ± 0.1
AUGCAGCAAUAUUACGUCCA,-1.72 ± 0.11,-0.786 ± 0.11
AUGCAGCAAUAUUACGUCCC,-1.53 ± 0.42,
AUGCAGCAAUAUUACGUCUG,-3.64 ± 0.35,-0.405 ± 0.16
AUGCAGCAAUAUUACGUGAC,-3.3 ± 0.21,-2.08 ± 0.16
AUGCAGCAAUAUUACGUGCU,-2.52 ± 0.1,-1.9 ± 0.098
